Data: patent publication US8642284

Assays:
[1] = target: histone H2A (calf thymus) (UniProt P0C0S9)
[2] = target: histone H4 (calf thymus) (UniProt P62803)
[3] = tested on: unacetylated histone H3 N-terminal tail peptide (residues 1-20)
[4] = tested on: histone H1 (calf thymus)
[5] = tested on: histone H3 N-terminal tail peptide (residues 1-20) di-acetylated at lysines 9 and 14
[6] = target: histone H2B (calf thymus) (UniProt P62808)
[7] = target: histone H3 (calf thymus), intact protein (UniProt P68432)

recombinant 6xHis-tagged full-length yeast Sir2p
ADP-ribosylation (transfer of 32P from NAD, SDS-PAGE) [1]: but not to H1, H2A and H4 | ADP-ribosylation (transfer of 32P from NAD, SDS-PAGE) [2]: but not to H1, H2A and H4 | ADP-ribosylation of peptide (32P-NAD, thin layer chromatography) [3]: modified only the diacetylated H3 tail peptide (unacetylated peptide not modified) | ADP-ribosylation (transfer of 32P from NAD, SDS-PAGE) [4]: but not to H1, H2A and H4 | ADP-ribosylation of peptide (32P-NAD, thin layer chromatography) [5]: Both the yeast and mouse Sir2 modified only the diacetylated H3 tail peptide | NAD-dependent deacetylation (HPLC, areas under peaks 1, 2 and 4) [5]: at least 27% of the input peptide was deacetylated by Sir2p | deacetylation of Lys9 in peak 4 (Edman sequencing) [5]: about 23% of Lys9 | deacetylation of Lys14 in peak 4 (Edman sequencing) [5]: 27% of Lys 14 | ADP-ribosylation (transfer of 32P from NAD, SDS-PAGE) [6]: transferred radioactive ADP-ribose to H2B and H3 | ADP-ribosylation (transfer of 32P from NAD, SDS-PAGE) [7]: transferred radioactive ADP-ribose to H2B and H3 | transfer of 32P from NAD (SDS-PAGE) [7]: 32P was transferred from NAD to intact histone H3
